Results taken from US20130266566A1.

T1: rat PAI-1 (rat) (UniProt P20961)
T1 sequence: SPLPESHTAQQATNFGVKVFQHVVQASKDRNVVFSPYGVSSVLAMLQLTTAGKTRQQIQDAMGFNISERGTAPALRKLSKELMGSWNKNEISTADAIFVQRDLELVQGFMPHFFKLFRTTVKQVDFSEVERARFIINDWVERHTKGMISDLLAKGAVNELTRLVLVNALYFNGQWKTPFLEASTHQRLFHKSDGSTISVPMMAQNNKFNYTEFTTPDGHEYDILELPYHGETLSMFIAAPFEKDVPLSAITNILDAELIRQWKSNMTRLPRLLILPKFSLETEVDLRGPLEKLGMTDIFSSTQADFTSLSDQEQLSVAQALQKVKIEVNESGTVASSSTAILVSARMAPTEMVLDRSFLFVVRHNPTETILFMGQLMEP


Tests used:
[1] = target: active human PAI-1, recombinant, wild-type, non-glycosylated (E. coli) (human) (UniProt P05121); experiment: cell-based or functional assay
Chain of active human PAI-1, recombinant, wild-type, non-glycosylated (E. coli) (human) (P05121 24-402): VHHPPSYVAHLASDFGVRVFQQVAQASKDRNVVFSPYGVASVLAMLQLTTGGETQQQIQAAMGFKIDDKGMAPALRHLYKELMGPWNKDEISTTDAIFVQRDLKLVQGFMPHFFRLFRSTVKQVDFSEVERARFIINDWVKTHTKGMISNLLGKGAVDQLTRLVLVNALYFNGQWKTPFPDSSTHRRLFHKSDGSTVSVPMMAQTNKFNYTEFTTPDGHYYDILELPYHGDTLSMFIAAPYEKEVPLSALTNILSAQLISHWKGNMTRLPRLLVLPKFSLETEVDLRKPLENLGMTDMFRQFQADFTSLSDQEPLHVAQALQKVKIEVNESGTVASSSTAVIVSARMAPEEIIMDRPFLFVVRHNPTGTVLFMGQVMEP

rat PAI-1 (rat) = target: T1, rat PAI-1 (rat); experiment: cell-based or functional assay
[2] = target: Antibody 16 IgG1, not germlined; experiment: competition binding assay: Antibody 16 IgG adsorbed to the plate, biotinylated active human PAI-1 plus a titration of the unlabelled competitor, streptavidin-Europium detection

Row | Binder | Chromogenic (IC50 in nM) human [1] [nM] | Chromogenic (IC50 in nM) rat (rat PAI-1 (rat)) [nM] | Chromogenic IC50 ratio rat/human (rat PAI-1 (rat)) [fold] | HT-1080 Exo PAI-1 (IC50 in nM) rat (rat PAI-1 (rat)) [nM] | IC50 in the rat chromogenic assay, fold higher than in the human assay (rat PAI-1 (rat)) [fold] | IC50 (read off the curve) [2] [nM]
1 | Antibody 18 scFv (scFv, V domains shown, part only, linker not stated) VH: QVQLQQSGAEVKKPGSSVKVSCKASGGTFSSYAISWVRQAPGQGLEWMGGIIPTFGTANYAQKLQGRVTITADESTSTAYMELSGLRSEDTAVYYCAREKRQWLEGHFDYWGRGTPVTVSS VL: DIQMTQSPSFLSASIGDRVTITCRASEGIYHALAWYQQKPGKAPKLLIYRASSLASGAPSRFSGSGSGTDFTLTISSLQPDDFATYYCQQYSNYPLTFGGGTKLEIK | 1.3 | 238 | 190 | 37 | 180 | –
2 | mouse PAI-1 (protein) ALPLRESHTAHQATDFGVKVFQQVVQASKDRNVVFSPYGVSSVLAMLQMTTAGKTRRQIQDAMGFKVNEKGTAHALRQLSKELMGPWNKNEISTADAIFVQRDLELVQGFMPHFFKLFQTMVKQVDFSEVERARFIINDWVERHTKGMINDLLAKGAVDELTRLVLVNALYFSGQWKTPFLEASTHQRLFHKSDGSTVSVPMMAQSNKFNYTEFTTPDGLEYDVVELPYQGDTLSMFIAAPFEKDVHLSALTNILDAELIRQWKGNMTRLPRLLILPKFSLETEVDLRGPLEKLGMPDMFSATLADFTSLSDQEQLSVAQALQKVRIEVNESGTVASSSTAFVISARMAPTEMVIDRSFLFVVRHNPTETILFMGQVMES | – | – | – | – | – | 6
